Drawing on US20240101654A1, this text covers EC50 for one molecule.

As usually defined, the EC50 is the concentration needed to bring the measured effect to its halfway point.

The target of this assay is recombinant full-length human Tau (Tau-441, (2N4R)) (human) (UniProt P10636). In words: indirect ELISA, plate coated with recombinant full-length human Tau at 3 µg/ml. On the technique in general: In an ELISA, binding on a coated surface is turned into a signal by an enzyme label.

B1: NI-502.4P3 (antibody, V domains shown)
VH: EVQLVQSGAEVKKPGESLKISCKVSGYDFSKYWIGWVRQMPGKGLEWMGLIYPGDSDTRYSPSLEGQVSISADKSISAAYLQFSSLKASDSAMYYCVRKGYSAYLGGWFDPWGQGTLVTVSS
VL: DIQLTQSPDSLAASLGERVTINCRSSQNIFYNSNNKNFLAWYQQKAGQSPKLLIYWASTRESGVPDRFSGSGSGTDFTLTISGLQAGDVAVYFCQQYFTDAPTFGGGTKVEIK
Turning to B1, the EC50 stood at 15 nM.
